Assay results as given in patent publication US20240400635A1 (Novo Nordisk, published 2024).

Assays:
Assay in all cases: cell-based or functional assay
[1] = molecular target: FGF receptor/BKL complex (human, UniProt Q86Z14 1-1044)
[2] = molecular target: T1, human GLP-1 receptor (human, UniProt P43220 24-463)
[3] = molecular target: T1, human GLP-1 receptor; remark: listed apart in the source

Chain of FGF receptor/BKL complex (Q86Z14 whole entry, one chain of several): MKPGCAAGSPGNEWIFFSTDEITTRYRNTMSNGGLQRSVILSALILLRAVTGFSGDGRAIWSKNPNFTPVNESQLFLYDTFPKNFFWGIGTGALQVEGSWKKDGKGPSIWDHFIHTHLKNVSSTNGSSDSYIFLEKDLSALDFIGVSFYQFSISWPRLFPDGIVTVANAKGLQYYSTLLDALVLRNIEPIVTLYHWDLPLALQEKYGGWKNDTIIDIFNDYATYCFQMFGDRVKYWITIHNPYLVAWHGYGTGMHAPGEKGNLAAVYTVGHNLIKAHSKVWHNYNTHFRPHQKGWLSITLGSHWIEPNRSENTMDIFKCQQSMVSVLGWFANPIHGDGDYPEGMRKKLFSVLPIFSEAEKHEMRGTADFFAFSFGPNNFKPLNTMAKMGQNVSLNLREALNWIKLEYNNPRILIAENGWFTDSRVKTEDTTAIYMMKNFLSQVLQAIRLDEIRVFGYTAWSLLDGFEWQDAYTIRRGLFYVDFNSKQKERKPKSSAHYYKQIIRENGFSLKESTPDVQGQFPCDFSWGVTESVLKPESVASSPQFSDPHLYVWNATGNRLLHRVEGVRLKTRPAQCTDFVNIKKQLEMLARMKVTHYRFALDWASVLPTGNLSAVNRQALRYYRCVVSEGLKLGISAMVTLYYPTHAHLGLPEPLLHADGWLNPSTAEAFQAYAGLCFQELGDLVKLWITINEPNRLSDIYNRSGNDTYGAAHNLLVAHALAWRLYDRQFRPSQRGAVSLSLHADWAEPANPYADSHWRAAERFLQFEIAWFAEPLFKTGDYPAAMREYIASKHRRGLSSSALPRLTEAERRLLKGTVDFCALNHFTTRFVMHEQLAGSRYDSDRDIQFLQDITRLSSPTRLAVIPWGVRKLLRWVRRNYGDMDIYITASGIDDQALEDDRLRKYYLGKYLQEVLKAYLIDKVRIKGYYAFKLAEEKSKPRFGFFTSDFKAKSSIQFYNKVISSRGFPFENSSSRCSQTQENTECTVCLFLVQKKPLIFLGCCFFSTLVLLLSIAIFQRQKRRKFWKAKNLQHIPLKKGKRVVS

FGF1 receptor potency [EC50] nM 0.1% HSA [1] [nM]	FGF21 receptor potency [EC50] nM 0% HSA [1] [nM]	GLP-1 receptor potency [EC50] pM 0% HSA [2] [pM]	GLP-1 receptor potency [EC50] pM 1% HSA [2] [pM]	GLP-1R potency loss against Chem. 24, absence of HSA [3] [fold]	GLP-1R potency loss against Chem. 24, presence of HSA [3] [fold]	Binder
0.45	0.24	15.7	106	–	–	S{Beta-27}-[2-[2-[[2-[2-[2-[[2-[2-[2-[[(4S)-4-carboxy-4-(17-carboxyheptadecanoyl-amino)butanoyl]amino]ethoxy]ethoxy]acetyl]amino]ethoxy]ethoxy]acetyl]amino]-eth … (ligand, Cys27 of the GLP-1 part (GLP-1(7-37) numbering; residue 21 of the chain) S-alkylated with substituent Chem. 7) HGEGTFTSDVSSYLEEQAAKCFIAWLVKGGGGAQPGAQPGAQPGAQPGAQPGAQPGAQPGAQPAHPIPDSSPLLQFGGQVRQRYLYTDDAQQTEAHLEIREDGTVGGAADQSPESLLQLKALKPGVIQILGVKTSRFLCQRPDGALYGSLHFDPEACSFRELLLEDGYNVYQSEAHGLPLHLPGQKSPHRDPAPRGPARFLPLPGLPPALPEPPGILAPQPPDVGSSDPLSLVGGSQGRSPSYAS
0.87	0.41	9.8	66.6	–	–	S{Beta-27}-[2-[2-[[2-[2-[2-[[2-[2-[2-[[(4S)-4-carboxy-4-(17-carboxyheptadecanoyl-amino)butanoyl]amino]ethoxy]ethoxy]acetyl]amino]ethoxy]ethoxy]acetyl]amino]-eth … (ligand, Cys27 of the GLP-1 part (GLP-1(7-37) numbering; residue 21 of the chain) S-alkylated with substituent Chem. 7) HGEGTFTSDVSSYLEEQAAKCFIAWLVKGGGGAQPGAQPGAQPGAQPGAQPGAQPGAQPGAQPAHPIPDSSPLLQFGGQVRQRYLYTDDAQQTEAHLEIREDGTVGGAADQSPESLLQLKALKPGVIQILGVKTSRFLCQRPDGALYGSLHFDPEACSFRELLLEDGYNVYQSEAHGLPLHLPGQKSPHRDPAPRGPARFLPLPGLPPALPEPPGILAPQPPDVGSSDPLSLVGGSQGRSPSYES
1.14	0.47	9.5	103	–	–	S{Beta-27}-[2-[2-[[2-[2-[2-[[2-[2-[2-[[(4S)-4-carboxy-4-(17-carboxyheptadecanoyl-amino)butanoyl]amino]ethoxy]ethoxy]acetyl]amino]ethoxy]ethoxy]acetyl]amino]-eth … (ligand, Cys27 of the GLP-1 part (GLP-1(7-37) numbering; residue 21 of the chain) S-alkylated with substituent Chem. 7) HGEGTFTSDVSSYLEEQAAKCFIAWLVKGGGGAQPGAQPGAQPGAQPGAQPGAQPGAQPGAQPGAQPGAQPGAQPGAQPGAQPGAQPGAQPGAQPAHPIPDSSPLLQFGGQVRQRYLYTDDAQQTEAHLEIREDGTVGGAADQSPESLLQLKALKPGVIQILGVKTSRFLCQRPDGALYGSLHFDPEACSFRELLLEDGYNVYQSEAHGLPLHLPGQKSPHRDPAPRGPARFLPLPGLPPALPEPPGILAPQPPDVGSSDPLSLVGGSQGRSPSYES
1.36	0.19	92.3	394	–	–	[8G, 22E, 36G]GLP-1(7-37)-(GAQP)x2, … (ligand, Cys of the spacer (residue 40 of the chain) S-alkylated with substituent Chem. 7) HGEGTFTSDVSSYLEEQAAKEFIAWLVKGGGGAQPGAQPCGAQPGAQPAHPIPDSSPLLQFGGQVRQRYLYTDDAQQTEAHLEIREDGTVGGAADQSPESLLQLKALKPGVIQILGVKTSRFLCQRPDGALYGSLHFDPEACSFRELLLEDGYNVYQSEAHGLPLHLPGQKSPHRDPAPRGPARFLPLPGLPPALPEPPGILAPQPPDVGSSDPLSLVGGSQGRSPSYAS
1.42	0.67	9.8	203	–	–	{S27-[(28S)-(28,46-Dicarboxy-2,7,16,25,30-pentaoxo-9,12,18,21-tetraoxa-3,6,15,24,29-pentaazahexatetracontan-1-yl)]-[Gly8,36,Glu22,Cys27]-GLP-1(human)-(7-37)-pep … (ligand, Cys27 of the GLP-1 part (GLP-1(7-37) numbering; residue 21 of the chain) S-alkylated with (28S)-(28,46-Dicarboxy-2,7,16,25,30-pentaoxo-9,12,18,21-tetraoxa-3,6,15,24,29-pentaazahexatetracontan-1-yl) (substituent Chem. 7)) HGEGTFTSDVSSYLEEQAAKCFIAWLVKGGGGAQPGAQPGAQPGAQPGAQPGAQPGAQPGAQPGAQPGAQPGAQPGAQPGAQPGAQPGAQPGAQPGAQPGAQPGAQPGAQPGAQPGAQPGAQPGAQPGAQPGAQPGAQPGAQPGAQPGAQPGAQPGAQPAHPIPDSSPLLQFGGQVRQRYLYTDDAQQTEAHLEIREDGTVGGAADQSPESLLQLKALKPGVIQILGVKTSRFLCQRPDGALYGSLHFDPEACSFRELLLEDGYNVYQSEAHGLPLHLPGQKSPHRDPAPRGPARFLPLPGLPPALPEPPGILAPQPPDVGSSDPLSLVGGSQGRSPSYES
18	0.22	29.5	450	–	–	[8G, 22E, 26R, 36G]GLP-1(7-37)-(GAQP)x2, … (ligand, Cys of the spacer (residue 40 of the chain) and Cys180 of the FGF21 part (FGF21(1-181) numbering; residue 229 of the chain) each S-alkylated with substituent Chem. 7) HGEGTFTSDVSSYLEEQAAREFIAWLVKGGGGAQPGAQPCGAQPGAQPAHPIPDSSPLLQFGGQVRQRYLYTDDAQQTEAHLEIREDGTVGGAADQSPESLLQLKALKPGVIQILGVKTSRFLCQRPDGALYGSLHFDPEACSFRELLLEDGYNVYQSEAHGLPLHLPGQKSPHRDPAPRGPARFLPLPGLPPALPEPPGILAPQPPDVGSSDPLSLVGPSQGRSPSYCSHGEGTFTSDVSSYLEEQAAREFIAWLVKGGGGAQPGAQPCGAQPGAQPAHPIPDSSPLLQFGGQVRQRYLYTDDAQQTEAHLEIREDGTVGGAADQSPESLLQLKALKPGVIQILGVKTSRFLCQRPDGALYGSLHFDPEACSFRELLLEDGYNVYQSEAHGLPLHLPGQKSPHRDPAPRGPARFLPLPGLPPALPEPPGILAPQPPDVGSSDPLSLVGPSQGRSPSYCS
0.73	0.41	54.6	394	–	–	S{Beta-36}-[2-[2-[[2-[2-[2-[[2-[2-[2-[[(4S)-4-carboxy-4-(17-carboxyheptadecanoyl-amino)butanoyl]amino]ethoxy]ethoxy]acetyl]amino]ethoxy]ethoxy]acetyl]amino]-eth … (ligand, Cys36 of the GLP-1 part (GLP-1(7-37) numbering; residue 30 of the chain) S-alkylated with substituent Chem. 7) HGEGTFTSDVSSYLEEQAAREFIAWLVKGCGGAQPGAQPGAQPGAQPAHPIPDSSPLLQFGGQVRQRYLYTDDAQQTEAHLEIREDGTVGGAADQSPESLLQLKALKPGVIQILGVKTSRFLCQRPDGALYGSLHFDPEACSFRELLLEDGYNVYQSEAHGLPLHLPGQKSPHRDPAPRGPARFLPLPGLPPALPEPPGILAPQPPDVGSSDPLSLVGGSQGRSPSYES
8	1.2	11.4	389	–	–	S{Beta-27}-[2-[2-[[2-[2-[2-[[2-[2-[2-[[(4S)-4-carboxy-4-(17-carboxyheptadecanoyl-amino)butanoyl]amino]ethoxy]ethoxy]acetyl]amino]ethoxy]ethoxy]acetyl]amino]-eth … (ligand, Cys27 of the GLP-1 part (GLP-1(7-37) numbering; residue 21 of the chain) and Cys180 of the FGF21 part (FGF21(1-181) numbering; residue 228 of the chain) each S-alkylated with substituent Chem. 7) HGEGTFTSDVSSYLEEQAARCFIAWLVKGGGGAQPGAQPGAQPGAQPAHPIPDSSPLLQFGGQVRQRYLYTDDAQQTEAHLEIREDGTVGGAADQSPESLLQLKALKPGVIQILGVKTSRFLCQRPDGALYGSLHFDPEACSFRELLLEDGYNVYQSEAHGLPLHLPGQKSPHRDPAPRGPARFLPLPGLPPALPEPPGILAPQPPDVGSSDPLSLVGPSQGRSPSYCS
0.51	0.43	67.4	397	> 10	–	S{Beta-26}-[2-[2-[[2-[2-[2-[[2-[2-[2-[[(4S)-4-carboxy-4-(17-carboxyheptadecanoyl-amino)butanoyl]amino]ethoxy]ethoxy]acetyl]amino]ethoxy]ethoxy]acetyl]amino]-eth … (ligand, Cys26 of the GLP-1 part (GLP-1(7-37) numbering; residue 20 of the chain) S-alkylated with substituent Chem. 7) HGEGTFTSDVSSYLEEQAACEFIAWLVKGGGGAQPGAQPGAQPGAQPAHPIPDSSPLLQFGGQVRQRYLYTDDAQQTEAHLEIREDGTVGGAADQSPESLLQLKALKPGVIQILGVKTSRFLCQRPDGALYGSLHFDPEACSFRELLLEDGYNVYQSEAHGLPLHLPGQKSPHRDPAPRGPARFLPLPGLPPALPEPPGILAPQPPDVGSSDPLSLVGGSQGRSPSYAS
0.43	0.17	17.2	104	–	–	S{Beta-27}-[2-[2-[[2-[2-[2-[[2-[2-[2-[[(4S)-4-carboxy-4-(17-carboxyheptadecanoyl-amino)butanoyl]amino]ethoxy]ethoxy]acetyl]amino]ethoxy]ethoxy]acetyl]amino]-eth … (ligand, Cys27 of the GLP-1 part (GLP-1(7-37) numbering; residue 21 of the chain) S-alkylated with substituent Chem. 7) HGEGTFTSDVSSYLEEQAARCFIAWLVKGGGGAQPGAQPGAQPGAQPAHPIPDSSPLLQFGGQVRQRYLYTDDAQQTEAHLEIREDGTVGGAADQSPESLLQLKALKPGVIQILGVKTSRFLCQRPDGALYGSLHFDPEACSFRELLLEDGYNVYQSEAHGLPLHLPGQKSPHRDPAPRGPARFLPLPGLPPALPEPPGILAPQPPDVGSSDPLSLVGGSQGRSPSYES
7.57	0.2	18	391	–	–	S{Beta-27}-[2-[2-[[2-[2-[2-[[2-[2-[2-[[(4S)-4-carboxy-4-(17-carboxyheptadecanoyl-amino)butanoyl]amino]ethoxy]ethoxy]acetyl]amino]ethoxy]ethoxy]acetyl]amino]-eth … (ligand, Cys27 of the GLP-1 part (GLP-1(7-37) numbering; residue 21 of the chain) and Cys180 of the FGF21 part (FGF21(1-181) numbering; residue 228 of the chain) each S-alkylated with substituent Chem. 7) HGEGTFTSDVSSYLEEQAAKCFIAWLVKGGGGAQPGAQPGAQPGAQPAHPIPDSSPLLQFGGQVRQRYLYTDDAQQTEAHLEIREDGTVGGAADQSPESLLQLKALKPGVIQILGVKTSRFLCQRPDGALYGSLHFDPEACSFRELLLEDGYNVYQSEAHGLPLHLPGQKSPHRDPAPRGPARFLPLPGLPPALPEPPGILAPQPPDVGSSDPLSLVGPSQGRSPSYCS
0.64	0.45	13.8	78.7	–	–	S{Beta-27}-[2-[2-[[2-[2-[2-[[2-[2-[2-[[(4S)-4-carboxy-4-(17-carboxyheptadecanoyl-amino)butanoyl]amino]ethoxy]ethoxy]acetyl]amino]ethoxy]ethoxy]acetyl]amino]-eth … (ligand, Cys27 of the GLP-1 part (GLP-1(7-37) numbering; residue 21 of the chain) S-alkylated with substituent Chem. 7) HGEGTFTSDVSSYLEEQAAKCFIAWLVKGGGGAQPGAQPGAQPGAQPAHPIPDSSPLLQFGGQVRQRYLYTDDAQQTEAHLEIREDGTVGGAADQSPESLLQLKALKPGVIQILGVKTSRFLCQRPDGALYGSLHFDPEACSFRELLLEDGYNVYQSEAHGLPLHLPGQKSPHRDPAPRGPARFLPLPGLPPALPEPPGILAPQPPDVGSSDPLSLVGGSQGRSPSYES
8.97	0.24	224	4410	40	26	S{Beta-26}-[2-[2-[[2-[2-[2-[[2-[2-[2-[[(4S)-4-carboxy-4-(17-carboxyheptadecanoyl-amino)butanoyl]amino]ethoxy]ethoxy]acetyl]amino]ethoxy]ethoxy]acetyl]amino]-eth … (ligand, Cys26 of the GLP-1 part (GLP-1(7-37) numbering; residue 20 of the chain) and Cys180 of the FGF21 part (FGF21(1-181) numbering; residue 228 of the chain) each S-alkylated with substituent Chem. 7) HGEGTFTSDVSSYLEEQAACEFIAWLVKGGGGAQPGAQPGAQPGAQPAHPIPDSSPLLQFGGQVRQRYLYTDDAQQTEAHLEIREDGTVGGAADQSPESLLQLKALKPGVIQILGVKTSRFLCQRPDGALYGSLHFDPEACSFRELLLEDGYNVYQSEAHGLPLHLPGQKSPHRDPAPRGPARFLPLPGLPPALPEPPGILAPQPPDVGSSDPLSLVGPSQGRSPSYCS
0.38	0.13	16.9	75.4	–	–	S{Beta-27}-[2-[2-[[2-[2-[2-[[2-[2-[2-[[(4S)-4-carboxy-4-(17-carboxyheptadecanoyl-amino)butanoyl]amino]ethoxy]ethoxy]acetyl]amino]ethoxy]ethoxy]acetyl]amino]-eth … (ligand, Cys27 of the GLP-1 part (GLP-1(7-37) numbering; residue 21 of the chain) S-alkylated with substituent Chem. 7) HGEGTFTSDVSSYLEEQAAKCFIAWLVKGGGGAQPGAQPGAQPGAQPAHPIPDSSPLLQFGGQVRQRYLYTDDAQQTEAHLEIREDGTVGGAADQSPESLLQLKALKPGVIQILGVKTSRFLCQRPDGALYGSLHFDPEACSFRELLLEDGYNVYQSEAHGLPLHLPGQKSPHRDPAPRGPARFLPLPGLPPALPEPPGILAPQPPDVGSSDPLSLVGGSQGRSPSYAS
0.57	0.32	28.2	222	–	–	[8G, 22E, 26R, 36G]GLP-1(7-37)-(GAQP)x2, … (ligand, Cys of the spacer (residue 40 of the chain) S-alkylated with substituent Chem. 7) HGEGTFTSDVSSYLEEQAAREFIAWLVKGGGGAQPGAQPCGAQPAHPIPDSSPLLQFGGQVRQRYLYTDDAQQTEAHLEIREDGTVGGAADQSPESLLQLKALKPGVIQILGVKTSRFLCQRPDGALYGSLHFDPEACSFRELLLEDGYNVYQSEAHGLPLHLPGQKSPHRDPAPRGPARFLPLPGLPPALPEPPGILAPQPPDVGSSDPLSLVGGSQGRSPSYAS
